Results: patent US20110123523A1 (MERRIMACK PHARMACEUTICALS, published 2011)
Read-outs that look alike come from different tables or passages of the source. Each block holds one binder with its values, some of them ahead of it.

Assays:
[1] = biological target: T1, full-length ErbB3 D93A mutant on CHO K1 cells (human, UniProt P21860 20-1342); assay: FACS on CHO K1 cells stably expressing full-length ErbB3 D93A; Ab #6 directly labelled with Alexa 488 (FL1)
T1 construct: whole, on cells
Excerpt: (§1) CHO K1 cells expressing wild type full-length ErbB3 served as a positive control.

[2] = biological target: T2, ErbB3 receptor, wild type full length, on cells (MALME-3M, ADRr/AdrR, CHO K1 transfectants) (human, UniProt P21860 20-1342); assay: cell binding assay, flow cytometry on MALME-3M cells, one-site binding fit
T2 construct: whole, on cells; also called HER3
Description: (§2) The concentrations of the diluted antibody ranged from 200 nM to 0.4 nM.
(§3) Aliquoted cells in the 96-well plate were incubated with the protein dilutions for 30 minutes at room temperature on a platform shaker and washed 3 times with 300 μl BD stain buffer. […] Finally, cells were washed twice, pelleted and resuspended in 250 μl BD stain buffer+0.5 μg/ml propidium iodide. Analysis of 10,000 cells was done in a FACScalibur flow cytometer using the FL4 channel. MFI values and the corresponding concentrations of the anti-ErbB3-antibodies were plotted on the y-axis and x-axis, respectively. The KD of the molecule was determined by GraphPad Prism using the one-site binding model for a non-linear regression curve.
(§4) The KD value was calculated based on the formula Y=Bmax*X/KD+X (Bmax=fluorescence at saturation. X=antibody concentration. Y=degree of binding).

[3] = biological target: T3, ErbB3 as used in the surface plasmon resonance (Flexchip) and KinExA assays (human, UniProt P21860 20-643, limits assumed); assay: Kinetic Exclusion Assay (KinExA); KinExA
[4] = biological target: T3, ErbB3 as used in the surface plasmon …; assay: surface plasmon resonance (Flexchip assay); Flexchip SPR, not KinExA
[5] = biological target: T4, full-length ErbB3 Y104A mutant on CHO K1 cells (human, UniProt P21860 20-1342); assay: FACS on CHO K1 cells stably expressing full-length ErbB3 Y104A; Ab #6 directly labelled with Alexa 488 (FL1)
T4 construct: whole, on cells; Numbering as for m15
Excerpt: as §1

[6] = biological target: T2, ErbB3 receptor, wild type full length, …; assay: cell-based or functional assay
[7] = biological target: T5, full-length ErbB3 L102A mutant on CHO K1 cells (human, UniProt P21860 20-1342); assay: FACS on CHO K1 cells stably expressing full-length ErbB3 L102A; Ab #6 directly labelled with Alexa 488 (FL1)
T5 construct: whole, on cells; Numbering as for m15
Excerpt: as §1

[8] = biological target: T2, ErbB3 receptor, wild type full length, …; assay: flow cytometry on MALME-3M cells, Alexa 647 goat anti-human IgG, one-site binding fit
Description: as §2, §3, §4

[9] = biological target: T3, ErbB3 as used in the surface plasmon …; assay: Kinetic Exclusion Assay (KinExA); KinExA, not Flexchip SPR
[10] = biological target: recombinant human EGFR (coated on ELISA plate) (human, UniProt P00533 25-645, limits assumed); assay: ELISA on plate-coated protein, HRP anti-human IgG, chemiluminescence
Description: (§5) Specifically, 96-well Nunc Maxisorb plates were coated with 50 μl of 5 μg/ml protein (recombinant human ErbB3, recombinant human EGFR or unrelated protein (BSA)) and incubated overnight at room temperature. The next morning, plates were washed 3 times with 1000 μl/well of PBST (0.05% Tween-20) in the BioTek plate washer. The wells were blocked for 1 hr at room temperature with 2% BSA in PBS. The plates were washed 3 times with 1000 μl/well of PBST (0.05% Tween-20) in the BioTek plate washer. […] All samples were run in duplicate and incubated for 2 hrs at 4° C. on a plate shaker. The plates were washed plates 3 times with 1000 μl/well of PBST (0.05% Tween-20) in the BioTek plate washer. 50 μl of human IgG detection antibody (HRP conjugated (Bethyl Inc; 1:75000 dilution in 2% BSA, PBST)) was added and the plates were incubated for 1 hr at room temperature. The plates were washed plate 3 times with 1000 μl/well of PBST (0.05% Tween-20) in the BioTek plate washer. 50 μL of Supersignal Pico ELISA substrate was added and the plate was read on the Fusion plate reader. The data was analyzed using the EXCEL program. Duplicate samples were averaged and the error bars represent the standard deviation between the two replicates.

[11] = biological target: T6, TGF-α (control in ELISA) (UniProt P01135 40-89); assay: as above
T6 construct: also called transforming growth factor-α
Description: as §5

[12] = biological target: bovine serum albumin (BSA), unrelated protein control (bovine, UniProt P02769 25-607); assay: as above
Chain of bovine serum albumin (BSA), unrelated protein control (P02769 25-607 limits assumed): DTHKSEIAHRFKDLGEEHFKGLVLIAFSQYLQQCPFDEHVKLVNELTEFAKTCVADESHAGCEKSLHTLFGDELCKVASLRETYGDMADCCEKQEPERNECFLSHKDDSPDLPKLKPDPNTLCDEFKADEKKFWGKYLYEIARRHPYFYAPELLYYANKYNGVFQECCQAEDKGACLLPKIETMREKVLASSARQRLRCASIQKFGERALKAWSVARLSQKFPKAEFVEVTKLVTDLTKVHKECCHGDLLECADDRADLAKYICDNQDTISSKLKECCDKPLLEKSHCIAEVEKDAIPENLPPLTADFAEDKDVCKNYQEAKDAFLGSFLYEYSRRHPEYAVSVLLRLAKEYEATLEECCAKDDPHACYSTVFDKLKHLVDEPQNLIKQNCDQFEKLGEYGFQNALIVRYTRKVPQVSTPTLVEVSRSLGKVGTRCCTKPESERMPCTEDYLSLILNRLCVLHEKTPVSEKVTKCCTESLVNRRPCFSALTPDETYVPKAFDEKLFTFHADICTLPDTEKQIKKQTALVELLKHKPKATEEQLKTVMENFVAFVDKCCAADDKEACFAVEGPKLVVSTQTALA
Description: as §5

[13] = biological target: T7, EGFR (ErbB1) on ADRr cells (human, UniProt P00533 25-1210); assay: flow cytometry on ADRr cells, biotinylated BTC + streptavidin-PE; BTC concentration not printed on the sheet (legend paragraph 39 names 10 nM)
T7 construct: whole, on cells
Description: (§6) Cells were then washed twice with 500 μl BD stain buffer and incubated with 100 μl of a 1:200 dilution of streptavidin-PE (PE=phycoerythrin) (Invitrogen) in BD stain buffer for 45 minutes. Finally, cells were washed twice, resuspended in 300 μl of BD stain buffer and analyzed in a FACScalibur flow cytometer. […] To assess background staining from the streptavidin-PE conjugate, cells were incubated with 100 μl of a 1:200 dilution of streptavidin-PE only for 45 minutes.

[14] = biological target: T2, ErbB3 receptor, wild type full length, …; assay: flow cytometry on MALME-3M cells (ErbB1 negative, ErbB3 positive), biotinylated BTC + streptavidin-PE
Description: as §6

[15] = biological target: T3, ErbB3 as used in the surface plasmon …; assay: surface plasmon resonance (Flexchip assay); Flexchip SPR
[16] = biological target: T2, ErbB3 receptor, wild type full length, …; assay: flow cytometry on MALME-3M cells, Alexa 647 goat anti-human IgG, one-site binding fit; remark: listed apart in the source
Description: as §2, §3, §4

[17] = biological target: T2, ErbB3 receptor, wild type full length, …; assay: flow cytometry, biotinylated heregulin EGF + streptavidin-PE; cells MALME3 according to the sheet's title and legend paragraph 42 (Example 10 names ADRr cells)
Description: Cells were then washed twice with 500 μl BD stain buffer and incubated with 100 μl of a 1:200 dilution of streptavidin-PE (PE=phycoerythrin) (Invitrogen) in BD stain buffer for 45 minutes. Finally, cells were washed twice, resuspended in 300 μl of BD stain buffer and analyzed in a FACScalibur flow cytometer.

[18] = biological target: T2, ErbB3 receptor, wild type full length, …; assay: flow cytometry on MALME-3M cells; Fab at about 500 nM; goat anti-human Alexa 647 secondary antibody

binding result [1]: no binding | Kd [2]: ~4 nM | koff [3]: 0.00011 s⁻¹ | kon [3]: 143000 M⁻¹ s⁻¹ | Kd [4]: ~4 nM | binding result [5]: no binding | IC50 of inhibition of BTC-induced ErbB3 phosphorylation (ELISA, ADRr cells) [6]: 5.9 nM | IC50 of inhibition of HRG1-beta-induced ErbB3 phosphorylation (ELISA, ADRr cells) [6]: 2.4 nM | binding result [7]: no binding | EC50 (read off the curve) [8]: 1 to 2 nM | Kd [9]: 0.769 nM
B1: Antibody #6 (Ab #6), human anti-ErbB3 antibody (antibody, V domains shown)
VH: EVQLLESGGGLVQPGGSLRLSCAASGFTFSHYVMAWVRQAPGKGLEWVSSISSSGGWTLYADSVKGRFTISRDNSKNTLYLQMNSLRAEDTAVYYCTRGLKMATIFDYWGQGTLVTVSS
VL: QSALTQPASVSGSPGQSITISCTGTSSDVGSYNVVSWYQQHPGKAPKLIIYEVSQRPSGVSNRFSGSKSGNTASLTISGLQTEDEADYYCCSYAGSSIFVIFGGGTKVTVL
notes: also called antibody number 6; MM121

binding result [10]: no binding (tested: 1000 nM) | binding result [11]: no binding (tested: 1000 nM) | binding result [12]: no binding (tested: 1000 nM)
B2: Ab #6, IgG2 isotype (antibody, V domains shown)
VH: EVQLLESGGGLVQPGGSLRLSCAASGFTFSHYVMAWVRQAPGKGLEWVSSISSSGGWTLYADSVKGRFTISRDNSKNTLYLQMNSLRAEDTAVYYCTRGLKMATIFDYWGQGTLVTVSS
VL: QSALTQPASVSGSPGQSITISCTGTSSDVGSYNVVSWYQQHPGKAPKLIIYEVSQRPSGVSNRFSGSKSGNTASLTISGLQTEDEADYYCCSYAGSSIFVIFGGGTKVTVL
notes: Human IgG2; also called IgG2 isotype of Ab #6

binding result [17]: binds
B5: biotinylated heregulin EGF (ligand, UniProt Q02297-6 177-241, looked up)
chain: SHLVKCAEKEKTFCVNGGECFMVKDLSNPSRYLCKCPNEFTGDRCQNYVMASFYKHLGIEFMEAE
modifications: also: biotinylated, site not given here
notes: domain: heregulin EGF

binding result [18]: binds
B6: Ab#14 (Fab, V domains shown)
VH: EVQLLESGGGLVQPGGSLRLSCAASGFTFSAYGMGWVRQAPGKGLEWVSYISPSGGHTKYADSVKGRFTISRDNSKNTLYLQMNSLRAEDTAVYYCAKVLETGLLVDAFDIWGQGTMVTVSS
VL: QYELTQPPSVSVYPGQTASITCSGDQLGSKFVSWYQQRPGQSPVLVMYKDKRRPSEIPERFSGSNSGNTATLTISGTQAIDEADYYCQAWDSSTYVFGTGTKVTVL
notes: also called Fab form of Ab #14; MM 121-14

The next lines start with the binder.

B3: betacellulin (BTC) (ligand, UniProt P35070 32-111, looked up)
chain: DGNSTRSPETNGLLCGDPEENCAATTTQSKRKGHFSRCPKQYKHYCIKGRCRFVVAEQTPSCVCDEGYIGARCERVDLFY
modifications: biotinylated (Example 7)
notes: also called biotinylated BTC
binding result [13]: binds | binding result [14]: no binding (tested: 500 nM)

B4: Antibody #3 (Ab #3), human anti-ErbB3 antibody (antibody, V domains shown)
VH: EVQLLESGGGLVQPGGSLRLSCAASGFTFSAYNMRWVRQAPGKGLEWVSVIYPSGGATRYADSVKGRFTISRDNSKNTLYLQMNSLRAEDTAVYYCARGYYYYGMDVWGQGTLVTVSS
VL: QSVLTQPPSASGTPGQRVTISCSGSDSNIGRNYIYWYQQFPGTAPKLLIYRNNQRPSGVPDRISGSKSGTSASLAISGLRSEDEAEYHCGTWDDSLSGPVFGGGTKLTVL
Kd [2]: ~1.3 nM | Kd [15]: ~8 nM | EC50 (read off the curve) [16]: ~8 nM
